Measured values published in the Human Domainome abundance scans (Beltran et al. 2025).
± gives the uncertainty stated by the source.

B1: Homeobox protein SIX3, residues 212 to 262; numbered along this chain, O95343 (parent)
chain: CFKERTRSLLREWYLQDPYPNPSKKRELAQATGLTPTQVGNWFKNRRQRDR

Variants of: B1
Experiment: abundance fitness (aPCA) (normalised: wild type 0, dead -1); higher = more abundant; growth selection in yeast, the domain comes from the species named
Settings: Homo sapiens

Abundance fitness, by site and new letter:
K25: C -0.103 ± 0.097 | L -0.061 ± 0.063 | T 0.133 ± 0.062 | R -0.177 ± 0.063 | P -0.84 ± 0.067 | W -0.334 ± 0.056 | M 0.004 ± 0.09 | N -0.344 ± 0.25 | D -0.753 ± 0.062 | G -0.579 ± 0.1 | S -0.478 ± 0.085 | A -0.326 ± 0.057 | V -0.019 ± 0.044 | Y -0.316 ± 0.1 | Q -0.109 ± 0.11 | E 0.008 ± 0.079
Y14: K -0.81 ± 0.14 | E -0.893 ± 0.1 | G -0.833 ± 0.057 | A -0.896 ± 0.059 | N -0.734 ± 0.16 | I -0.746 ± 0.076 | Q -0.834 ± 0.17 | L -0.828 ± 0.056 | P -0.672 ± 0.13 | D -1.14 ± 0.31 | S -0.667 ± 0.066 | W -0.711 ± 0.1 | M -0.891 ± 0.13 | T -0.946 ± 0.062 | F -0.294 ± 0.091 | R -0.849 ± 0.075 | H -0.951 ± 0.1 | C -0.822 ± 0.17
T6: W -0.434 ± 0.079 | R -0.401 ± 0.072 | Y -0.289 ± 0.3 | V 0.057 ± 0.046 | S -0.354 ± 0.091
P20: E -0.756 ± 0.12 | S -1.05 ± 0.3 | W -1.13 ± 0.18 | D -0.845 ± 0.13 | M -0.663 ± 0.17 | G -0.764 ± 0.055 | R -0.819 ± 0.062 | Y -0.707 ± 0.075 | V -0.477 ± 0.081 | A -0.425 ± 0.14 | K -0.977 ± 0.17 | Q -0.812 ± 0.39 | C -0.486 ± 0.29 | F -0.799 ± 0.11 | N -0.912 ± 0.31 | L -0.339 ± 0.1 | T -0.838 ± 0.23
L15: S -0.568 ± 0.32 | Q 0.08 ± 0.07 | M -0.309 ± 0.2 | E -0.091 ± 0.16 | W -0.551 ± 0.35 | C 0.756 ± 0.27 | A 0.358 ± 0.093 | R 0.145 ± 0.1 | D 0.114 ± 0.11 | V -0.22 ± 0.24
S23: E 0.002 ± 0.08 | R -0.551 ± 0.074 | Y -0.761 ± 0.23 | Q -0.022 ± 0.11 | W -0.729 ± 0.15 | V -0.094 ± 0.064 | M -0.277 ± 0.14 | P -0.341 ± 0.12 | H -0.356 ± 0.059 | T -0.005 ± 0.075 | L -0.342 ± 0.059 | N -0.249 ± 0.08 | A 0.072 ± 0.076 | C -0.166 ± 0.17 | G -0.079 ± 0.056 | D 0.175 ± 0.064 | K -0.512 ± 0.19 | F -0.343 ± 0.11
P18: M -0.501 ± 0.11 | S -0.474 ± 0.055 | F -0.672 ± 0.17 | V -0.687 ± 0.062 | G -0.906 ± 0.085 | I -0.487 ± 0.13 | R -0.182 ± 0.062 | T -0.629 ± 0.14 | H -0.028 ± 0.17 | A -0.226 ± 0.049 | Q -0.286 ± 0.18 | E -0.717 ± 0.13 | K -0.136 ± 0.095 | C -0.032 ± 0.082 | L -0.903 ± 0.17
K24: S -0.193 ± 0.06 | L -0.366 ± 0.084 | V -0.101 ± 0.053 | T -0.097 ± 0.092 | Q -0.112 ± 0.093 | P -0.924 ± 0.14 | C -0.399 ± 0.085 | A 0.11 ± 0.074 | H -0.219 ± 0.096 | G -0.417 ± 0.068 | R -0.137 ± 0.047 | M -0.246 ± 0.15 | E -0.364 ± 0.092 | W -0.896 ± 0.13 | F -0.672 ± 0.094 | Y -0.709 ± 0.2 | I -0.072 ± 0.09
D17: T -0.844 ± 0.061 | C -0.78 ± 0.27 | M -0.81 ± 0.14 | A -0.89 ± 0.14 | N -0.599 ± 0.097 | Q -0.814 ± 0.18 | I -0.927 ± 0.38 | V -0.878 ± 0.11 | F -0.82 ± 0.39 | G -0.834 ± 0.067 | E -0.204 ± 0.078 | P -0.753 ± 0.19 | S -0.627 ± 0.07 | R -0.907 ± 0.13 | K -0.665 ± 0.12 | Y -1 ± 0.41 | H -1.04 ± 0.23
S8: K 0.048 ± 0.061
L10: T -0.974 ± 0.23 | F -0.824 ± 0.2 | W -1.03 ± 0.14 | H -0.868 ± 0.16 | R -0.93 ± 0.077 | N -0.724 ± 0.28 | C -0.88 ± 0.28 | Y -0.561 ± 0.36 | P -0.872 ± 0.093 | E -0.886 ± 0.084 | A -0.895 ± 0.058 | G -0.961 ± 0.16 | V -1.01 ± 0.17 | S -0.647 ± 0.098 | Q -0.972 ± 0.15 | M -0.381 ± 0.11
W13: S -0.069 ± 0.079 | C -0.08 ± 0.059 | D -0.527 ± 0.12 | F -0.545 ± 0.2 | K -0.399 ± 0.12 | P -0.747 ± 0.16 | M 0.012 ± 0.091 | I -0.153 ± 0.13 | L -0.139 ± 0.076 | H -0.338 ± 0.15 | Q 0.026 ± 0.052 | E -0.078 ± 0.056 | A 0.015 ± 0.06 | N 0.097 ± 0.081 | V -0.075 ± 0.052 | Y -0.007 ± 0.056 | T -0.066 ± 0.072
P22: N -0.232 ± 0.084 | R -0.362 ± 0.06 | A -0.108 ± 0.061 | D -0.195 ± 0.12 | W 0.125 ± 0.087 | K -0.445 ± 0.078 | L 0.156 ± 0.038 | S -0.107 ± 0.05 | H -0.717 ± 0.42 | I -0.014 ± 0.05 | Y -0.102 ± 0.12 | M -0.266 ± 0.11 | V 0.03 ± 0.058 | E 0.055 ± 0.048 | C -0.359 ± 0.21 | Q -0.212 ± 0.094
E27: A -0.55 ± 0.09 | P -0.785 ± 0.18 | L -0.515 ± 0.079 | D -0.253 ± 0.16 | H -0.446 ± 0.3 | K 0.121 ± 0.1 | I -0.486 ± 0.22 | F -0.276 ± 0.049 | C -0.819 ± 0.2 | M -0.373 ± 0.07 | N -0.947 ± 0.39 | Q -0.357 ± 0.16
L9: F -0.51 ± 0.22 | A -0.43 ± 0.064 | M -0.199 ± 0.11 | N -0.8 ± 0.15 | H -0.417 ± 0.16 | T -0.138 ± 0.054 | K -0.226 ± 0.073 | W -0.632 ± 0.05 | G -0.726 ± 0.05 | E -0.481 ± 0.066 | R -0.369 ± 0.063 | Y -0.001 ± 0.11 | P -0.644 ± 0.1 | S -0.733 ± 0.074 | Q -0.266 ± 0.067 | V -0.071 ± 0.052 | C -0.694 ± 0.18 | I -0.095 ± 0.084 | D -0.825 ± 0.13
Y19: E -0.591 ± 0.14 | K -0.095 ± 0.1 | H -0.337 ± 0.14 | G -0.849 ± 0.07 | Q -0.426 ± 0.088 | F -0.089 ± 0.085 | N -0.313 ± 0.11 | L -0.352 ± 0.058 | V -0.474 ± 0.048 | P -0.85 ± 0.087 | D -0.368 ± 0.17 | W -0.374 ± 0.09 | S -0.514 ± 0.076 | T -0.278 ± 0.088 | A -0.372 ± 0.081 | M -0.292 ± 0.11 | C -0.308 ± 0.082 | R -0.184 ± 0.045
N21: L -0.375 ± 0.049 | S 0.078 ± 0.056 | R -0.351 ± 0.057 | I -0.433 ± 0.17 | Q -0.553 ± 0.34 | P 0.027 ± 0.063 | D 0.322 ± 0.086 | G -0.042 ± 0.057 | F -0.499 ± 0.21 | K 0.23 ± 0.091 | H -0.171 ± 0.097 | M -0.277 ± 0.067 | Y -0.873 ± 0.1 | V -0.14 ± 0.047 | T 0.224 ± 0.068 | A -0.159 ± 0.052 | W -0.613 ± 0.077
Q16: F -0.109 ± 0.099 | G -0.564 ± 0.047 | H -0.173 ± 0.14 | I 0.251 ± 0.1 | K -0.212 ± 0.12 | N -0.092 ± 0.13 | E -0.302 ± 0.069 | R -0.076 ± 0.054 | P -0.712 ± 0.29 | A -0.106 ± 0.046 | W -0.327 ± 0.096 | Y -0.382 ± 0.068 | D -0.601 ± 0.38 | T -0.249 ± 0.069 | M 0.13 ± 0.1 | S -0.285 ± 0.046
R26: K -0.01 ± 0.085 | M -0.14 ± 0.11 | H 0.047 ± 0.084 | A 0.181 ± 0.056 | N 0.385 ± 0.1 | S -0.045 ± 0.042 | V 0.047 ± 0.049 | L 0.158 ± 0.064 | C -0.044 ± 0.052 | G -0.209 ± 0.067 | P -0.889 ± 0.1 | F -0.228 ± 0.065 | D -0.667 ± 0.32 | W -0.266 ± 0.066 | Q 0.091 ± 0.09 | T -0.091 ± 0.092 | Y -0.286 ± 0.13 | E -0.002 ± 0.058
R7: S 0.006 ± 0.078 | M -0.128 ± 0.11 | N 0.188 ± 0.15 | G -0.261 ± 0.075 | E -0.181 ± 0.11 | P -0.702 ± 0.18 | W -0.091 ± 0.12 | T -0.403 ± 0.2 | Q -0.137 ± 0.2 | V -0.03 ± 0.043 | D -0.26 ± 0.18 | Y 0.033 ± 0.15 | I 0.083 ± 0.19 | L -0.272 ± 0.096 | H 0.238 ± 0.49 | F -0.419 ± 0.3
E12: Y -0.09 ± 0.041 | S -0.236 ± 0.083 | L -0.426 ± 0.06 | G -0.3 ± 0.042 | V -0.608 ± 0.099 | T -0.285 ± 0.056 | C -0.84 ± 0.2 | D -0.098 ± 0.072 | F -0.45 ± 0.16 | N 0.23 ± 0.12 | W -0.185 ± 0.11 | I -0.618 ± 0.15 | M -0.282 ± 0.066 | A -0.256 ± 0.075 | K -0.314 ± 0.12 | P -0.872 ± 0.12
R11: C -0.392 ± 0.16 | P -0.514 ± 0.15 | S -0.021 ± 0.059 | D -0.22 ± 0.058 | T 0.106 ± 0.077 | Y -0.408 ± 0.24 | N -0.111 ± 0.071 | M 0.077 ± 0.065 | K -0.138 ± 0.093 | H -0.227 ± 0.13 | I 0.004 ± 0.075 | G -0.302 ± 0.054 | A -0.131 ± 0.053 | E -0.047 ± 0.085 | F -0.061 ± 0.073 | W -0.07 ± 0.063 | L -0.026 ± 0.058 | Q -0.23 ± 0.09 | V -0.141 ± 0.053
